According to publication doi:10.1101/2022.11.15.516651 (bioRxiv, 2022):

T1: FLAG-SLC3A2 N381D (human, UniProt P08195-1 66-630, N381D)
T1 sequence (looked up): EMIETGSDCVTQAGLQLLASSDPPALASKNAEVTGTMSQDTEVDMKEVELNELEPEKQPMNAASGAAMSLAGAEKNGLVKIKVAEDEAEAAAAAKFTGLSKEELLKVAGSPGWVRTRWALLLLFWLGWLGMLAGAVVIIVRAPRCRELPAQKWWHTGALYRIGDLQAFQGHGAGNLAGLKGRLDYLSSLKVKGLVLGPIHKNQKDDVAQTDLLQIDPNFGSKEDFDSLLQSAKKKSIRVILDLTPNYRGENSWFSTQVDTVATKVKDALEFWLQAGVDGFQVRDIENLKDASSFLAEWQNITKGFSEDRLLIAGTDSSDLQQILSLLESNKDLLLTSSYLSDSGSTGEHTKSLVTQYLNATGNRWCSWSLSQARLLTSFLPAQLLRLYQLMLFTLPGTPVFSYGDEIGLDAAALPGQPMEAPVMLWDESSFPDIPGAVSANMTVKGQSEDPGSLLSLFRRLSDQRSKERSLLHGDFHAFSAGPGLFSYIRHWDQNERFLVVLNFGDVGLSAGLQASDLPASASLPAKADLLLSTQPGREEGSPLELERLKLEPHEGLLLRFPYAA

T2: FLAG-SLC3A2 N365D (human, UniProt P08195-1 66-630, N365D)
T2 sequence (looked up): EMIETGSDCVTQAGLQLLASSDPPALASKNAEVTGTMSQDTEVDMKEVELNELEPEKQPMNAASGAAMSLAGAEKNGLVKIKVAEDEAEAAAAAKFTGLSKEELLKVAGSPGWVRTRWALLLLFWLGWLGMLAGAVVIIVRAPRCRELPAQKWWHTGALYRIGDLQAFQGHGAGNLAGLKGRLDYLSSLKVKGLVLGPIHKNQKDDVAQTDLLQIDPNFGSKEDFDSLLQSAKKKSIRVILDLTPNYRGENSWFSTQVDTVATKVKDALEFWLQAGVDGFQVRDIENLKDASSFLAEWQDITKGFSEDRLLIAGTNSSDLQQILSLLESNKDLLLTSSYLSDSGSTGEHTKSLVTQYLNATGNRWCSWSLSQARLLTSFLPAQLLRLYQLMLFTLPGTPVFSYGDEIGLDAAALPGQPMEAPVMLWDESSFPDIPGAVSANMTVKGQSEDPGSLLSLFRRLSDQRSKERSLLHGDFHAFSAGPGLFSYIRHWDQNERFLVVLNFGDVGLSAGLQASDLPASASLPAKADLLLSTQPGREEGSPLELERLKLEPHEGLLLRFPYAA


Legend:
[1] = target: T1, FLAG-SLC3A2 N381D; assay: affinity purification with mass spectrometry
[2] = target: T2, FLAG-SLC3A2 N365D; assay: affinity purification with mass spectrometry

Binder | percent decrease of association against WTseq [1] | percent decrease of association against WTseq [2]
SLC7A11 (xc(-)) (natural protein, human (endogenous in HeLa), UniProt Q9UPY5 1-501, looked up) MVRKPVVSTISKGGYLQGNVNGRLPSLGNKEPPGQEKVQLKRKVTLLRGVSIIIGTIIGAGIFISPKGVLQNTGSVGMSLTIWTVCGVLSLFGALSYAELGTTIKKSGGHYTYILEVFGPLPAFVRVWVELLIIRPAATAVISLAFGRYILEPFFIQCEIPELAIKLITAVGITVVMVLNSMSVSWSARIQIFLTFCKLTAILIIIVPGVMQLIKGQTQNFKDAFSGRDSSITRLPLAFYYGMYAYAGWFYLNFVTEEVENPEKTIPLAICISMAIVTIGYVLTNVAYFTTINAEELLLSNAVAVTFSERLLGNFSLAVPIFVALSCFGSMNGGVFAVSRLFYVASREGHLPEILSMIHVRKHTPLPAVIVLHPLTMIMLFSGDLDSLLNFLSFARWLFIGLAVAGLIYLRYKCPDMHRPFKVPLFIPALFSFTCLFMVALSLYSDPFSTGIGFVITLTGVPAYYLFIIWDKKPRWFRIMSEKITRTLQIILEVVPEEDKL | 67 ± 15% | 67 ± 15%
SLC7A5 (natural protein) not shown | 44 ± 14% | 44 ± 14%
